# Measurements taken from patent publication US20120129720, “APTAMER THAT RECOGNIZES PEPTIDE” (KANAGAWA PREFECTURAL HOSPITAL ORGANIZATION, published 2012).
# T1: His-MIF (His-tag/T7 gene 10 leader/Xpress-MIF fusion) (UniProt P14174 P14174:1-115)
# T1 chain: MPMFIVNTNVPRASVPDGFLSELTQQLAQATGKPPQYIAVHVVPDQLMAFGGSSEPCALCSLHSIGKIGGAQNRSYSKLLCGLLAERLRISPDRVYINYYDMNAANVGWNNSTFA
# B1: His_2 (ssRNA)
# RNA: GGGACGCUCACGUACGCUCAGGUGAAUUGGCCGCCGUUCUUUCCGUGGAAUGACGCGAUGUCAGUGCCUGGACGUGCAGU
# modifications: 3' A20 tail for capture
# B2: His_5 (ssRNA)
# RNA: GGGACGCUCACGUACGCUCAGAACCCGUAUUGGUCACAGGUGGAUUGGUCUAUAUUGUUAUCAGUGCCUGGACGUGCAGU
# modifications: 3' A20 tail for capture
# B3: His_4 (ssRNA)
# RNA: GGGACGCUCACGUACGCUCAUAAGGGUGUACUGGCGAUUGUUGGGACGCACUUCAAUUUGUCAGUGCCUGGACGUGCAGU
# modifications: 3' A20 tail for capture
# B4: His_3 (ssRNA)
# RNA: GGGACGCUCACGUACGCUCAGGUGUACUGGCACUACUGAAAUUUCAUUUGAGUAGGUCUGUCAGUGCCUGGACGUGCAGU
# modifications: 3' A20 tail for capture
# B5: #727 (ssRNA)
# RNA: GGGACGCUCACGUACGCUCACUCAGGUGAUUGGCGCUAUUUAUCGAUCGAUAAUUGAAUGUCAGUGCCUGGACGUGCAGU
# modifications: 3' A20 tail for capture
# B6: #746 (ssRNA)
# RNA: GGGACGCUCACGUACGCUCAGGUGAAUUGGCACUUCUUUAUCUACGGAUCGAGUCGGAUGUCAGUGCCUGGACGUGCAGU
# modifications: 3' A20 tail for capture
# B7: #708 (ssRNA)
# RNA: GGGACGCUCACGUACGCUCACGGUUAUUGGCGGAGGAUCUGUCAUGGCAUGCCUCGACUGUCAGUGCCUGGACGUGCAGU
# modifications: 3' A20 tail for capture
# B8: #704 (ssRNA)
# RNA: GGGACGCUCACGUACGCUCAUGUUCCUUUGGGUUAUUGGCUCCUUGUUGACCAGGGGAUGUCAGUGCCUGGACGUGCAGU
# modifications: 3' A20 tail for capture
# B9: #701 (ssRNA)
# RNA: GGGACGCUCACGUACGCUCACCGGGUUAUUGGCGCAAUAUUGGUAUCCUGUAUUGGUCUGUCAGUGCCUGGACGUGCAGU
# modifications: 3' A20 tail for capture
# B10: #716 (ssRNA)
# RNA: GGGACGCUCACGUACGCUCACCUGUUUUGUCUAGGUUUAUUGGCGCUUAUUCCUGGAAUGUCAGUGCCUGGACGUGCAGU
# modifications: 3' A20 tail for capture
# B11: #718 (ssRNA)
# RNA: GGGACGCUCACGUACGCUCACUUCUUUCCCACUCACGUCUCGGUUUUAUUGGUCCAGUUUUCAGUGCCUGGACGUGCAGU
# modifications: 3' A20 tail for capture
# B12: #733 (ssRNA)
# RNA: GGGACGCUCACGUACGCUCACUUCCCUAGACCCUCCAGGUUACAGGCGCCGCCCGGAAUGUCAGUGCCUGGACGUGCAGU
# modifications: 3' A20 tail for capture
# B13: #714 (ssRNA)
# RNA: GGGACGCUCACGUACGCUCAGGUUUAUUGGUGCCGUGUAGUGGAAUAUCAGUGCCUGGACGUGCAGU
# modifications: 3' A20 tail for capture
# B14: #713 (ssRNA)
# RNA: GGGACGCUCACGUACGCUCACAACACUCGAAGGGUUUAUUGGCCCCACCAUGGUGGAAUGUCAGUGCCUGGACGUGCAGU
# modifications: 3' A20 tail for capture
# B15: #7052 (ssRNA)
# RNA: GGGACGCUCACGUACGCUCAAUUCUGUUCUGUCUCUCCGGGUUUACUGGCGCUAUGAAUGUCAGUGCCUGGACGUGCAGU
# modifications: 3' A20 tail for capture
# B16: #745 (ssRNA)
# RNA: GGGACGCUCACGUACGCUCAGAGCCACGGGUUUACUGGCGCUAAACAAAUGUUUAGGAUGUCAGUGCCUGGACGUGCAGU
# modifications: 3' A20 tail for capture
# B17: #715 (ssRNA)
# RNA: GGGACGCUCACGUACGCUCAUAGAGUGUAUUUGUACCAGGUAUACUGGCGCGAACGAAUGUCAGUGCCUGGACGUGCAGU
# modifications: 3' A20 tail for capture
# B18: #7029 (ssRNA)
# RNA: GGGACGCUCACGUACGCUCACGAAAUCCAGGUUUGAUUGGCGUGGCACCCUUGCCAAGUGUCAGUGCCUGGACGUGCAGU
# modifications: 3' A20 tail for capture
# B19: #719 (ssRNA)
# RNA: GGGACGCUCACGUACGCUCAGCUCUCUUACUUCCUGGGUGACUGGCUCUUUCGGGGUAUGUCAGUGCCUGGACGUGCAGU
# modifications: 3' A20 tail for capture
# B20: #7062 (ssRNA)
# RNA: GGGACGCUCACGUACGCUCAUCUCGCCGCAUUUCCAGGUUUUUUGGCGCUUAUGAAUGAUCAGUGCCUGGACGUGCAGU
# modifications: 3' A20 tail for capture
# B21: #7007 (ssRNA)
# RNA: GGGACGCUCACGUACGCUCAGAGAUCGUUCUGGUUAUUGGCGCCUUCUGAUAAAGGAAUGUCAGUGCCUGGACGUGCAGU
# modifications: 3' A20 tail for capture
# B22: #725 (ssRNA)
# RNA: GGGACGCUCACGUACGCUCACAUGUCCGGGUGGAUUGGAUCGAUUACUUGUUUUCGUUUAUCAGUGCCUGGACGUGCAGU
# modifications: 3' A20 tail for capture
# B23: #7015 (ssRNA)
# RNA: GGGACGCUCACGUACGCUCAUGUCUCGGUUUAUUGGCGGUCGGACUUUUGCCCUGCGAUGUCAGUGCCUGGACGUGCAGU
# modifications: 3' A20 tail for capture
# B24: #736 (ssRNA)
# RNA: GGGACGCUCACGUACGCUCACCUCAAGUCGGGUCUAUUGUCUCCGGCGAAGCAUGGACUGUCAGUGCCUGGACGUGCAGU
# modifications: 3' A20 tail for capture
# B25: #723 (ssRNA)
# RNA: GGGACGCUCACGUACGCUCAGGUUAUUGGCGCCCUCGAACCAAAAUGGAUGCCGGGAAUGUCAGUGCCUGGACGUGCAGU
# modifications: 3' A20 tail for capture
# B26: #7054 (ssRNA)
# RNA: GGGACGCUCACGUACGCUCAAAGUGUCUGCAAGUCUACCGGUUUAUUGGCCACUCCGUUUUCAGUGCCUGGACGUGCAGU
# modifications: 3' A20 tail for capture
# B27: #7009 (ssRNA)
# RNA: GGGACGCUCACGUACGCUCAUGAUUGAAUGGGCGAAUCGACCUUACCGGUUUUCUGCAACUCAGUGCCUGGACGUGCAGU
# modifications: 3' A20 tail for capture
# B28: #7049 (ssRNA)
# RNA: GGGACGCUCACGUACGCUCACGCUCAGGUGAAUUGGUUACGUUUUCUCUGACAAUGUGGAUCAGUGCCUGGACGUGCAGU
# modifications: 3' A20 tail for capture
# B29: #7030 (ssRNA)
# RNA: GGGACGCUCACGUACGCUCAAUGAGCUCACCUGGGUAAUUGGCGCCAAUUCAAGGGUCUGUCAGUGCCUGGACGUGCAGU
# modifications: 3' A20 tail for capture
# B30: #707 (ssRNA)
# RNA: GGGACGCUCACGUACGCUCACGGUGGAUUGGCGACGAUGACCUUGAUAGUCCUCGUAAUGUCAGUGCCUGGACGUGCAGU
# modifications: 3' A20 tail for capture
# B31: #7034 (ssRNA)
# RNA: GGGACGCUCACGUACGCUCAAAAUGCUGUUGCAGGUUAUUUGGCUCUCGGUCUGAGAAUGUCAGUGCCUGGACGUGCAGU
# modifications: 3' A20 tail for capture
# B32: #7004 (ssRNA)
# RNA: GGGACGCUCACGUACGCUCAGGCGUUCUUCGCUGUAGUUCCGGUUUAUUGGUCUUUGUUUUCAGUGCCUGGACGUGCAGU
# modifications: 3' A20 tail for capture
# B33: #7008 (ssRNA)
# RNA: GGGACGCUCACGUACGCUCAUUGUCUUGGUGUAUUGGUUACUGUCCAAUGGGCGGUGUAUUCAGUGCCUGGACGUGCAGU
# modifications: 3' A20 tail for capture
# B34: #748 (ssRNA)
# RNA: GGGACGCUCACGUACGCUCAGCGCUUCUCGUUUGCUUUCCGGGUUCAUUGGUCCAUGUUUUCAGUGCCUGGACGUGCAGU
# modifications: 3' A20 tail for capture
# Molecular target: T1, His-MIF (His-tag/T7 gene 10 …)
# Experiment: SPR; 600 nM His-MIF
# Conditions: MIF 115 aa; ATGen
# Experimental: (§1) A molecular interaction between each of the RNA aptamers and each of fusion proteins, i.e., a binding ability of each of the RNA aptamers to each of the fusion proteins was analyzed using surface plasmon resonance. The analysis of the binding ability was performed using BiacoreX (GE Healthcare UK Ltd.) according to the instruction thereof. Specifically, first, polyadenine having 20 bases was added to the 3′-end of the RNA aptamer. Thus, polyadenine-added RNA aptamer was prepared. This was then heated at 95° C. for 5 minutes and rapidly cooled on ice. Biotinylated polythymine having 20 bases obtained by biotinylating the 5′-end of polythymine had been bound to a streptavidin chip (Sensor chip SA, GE Healthcare UK Ltd.). The polyadenine-added RNA aptamer was introduced into a flow cell on the streptavidin chip using a running buffer. At this stage, the polyadenine-added RNA aptamer was immobilized on the chip via the biotinylated polythymine by complementary binding between poly A of the polyadenine-added RNA aptamer and the biotinylated polythymine. The polyadenine-added RNA aptamer was caused to bind to the biotinylated polythymine until a resonance unit (RU) (resonance unit; 1 RU=1 pg/mm²) reaches 700 RU. Subsequently, HBS (Hepes Buffered Saline) containing the fusion protein with a predetermined concentration was introduced into the chip using a running buffer, and a signal (RU) was measured. The composition of the running buffer includes 10 mmol/L HEPES (4-(2-hydroxyethyl)-1-piperazine ethanesulfonic acid), 150 mmol/L sodium chloride, 0.1 mmol/L magnesium acetate, and 0.01% Tween (registered trademark) 20 (pH 7.2). As a control, an introduction of the fusion protein and a measurement of a signal were performed in the same manner as described above using a chip to which biotinylated polythymine had been bound, on which no polyadenine-added RNA aptamer had been immobilized.
# A binding ability of each of these RNA aptamers to His-MIF was analyzed by surface plasmon resonance in the same manner as in “1. (4) Molecular interaction analysis” of Example 1.
row,Binder,binding result
1,B1,binds
2,B2,binds
3,B3,binds
4,B4,binds

# Molecular target: T1, His-MIF (His-tag/T7 gene 10 …)
# Experiment: SPR; 600 nM His-MIF
# Conditions: MIF 115 aa; ATGen
# Remark: another data set of the same source
# Experimental: as §1
# A binding ability of each of the RNA pools in the respective rounds to His-MIF was analyzed by surface plasmon resonance in the same manner as in “1. (4) Molecular interaction analysis” of Example 1. […] N40 (control RNA) also was analyzed in the same manner as mentioned above.
row,Binder,binding signal
1,B5,1.05 His-MIF/RNA bonds
2,B6,0.5 His-MIF/RNA bonds
3,B7,1.16 His-MIF/RNA bonds
4,B8,0.96 His-MIF/RNA bonds
5,B9,1.32 His-MIF/RNA bonds
6,B10,0.99 His-MIF/RNA bonds
7,B11,0.75 His-MIF/RNA bonds
8,B12,0.86 His-MIF/RNA bonds
9,B13,1.01 His-MIF/RNA bonds
10,B14,0.88 His-MIF/RNA bonds

# Molecular target: T1, His-MIF (His-tag/T7 gene 10 …)
# Experiment: SPR; 600 nM His-MIF; data not shown
# Conditions: MIF 115 aa; ATGen
row,Binder,binding result
1,B15,binds
2,B16,binds
3,B17,binds
4,B18,binds
5,B19,binds
6,B20,binds
7,B21,binds
8,B22,binds
9,B23,binds
10,B24,binds
11,B25,binds
12,B26,binds
13,B27,binds
14,B28,binds
15,B29,binds
16,B30,binds
17,B31,binds
18,B32,binds
19,B33,binds
20,B34,binds
